# Data published in US12156889B2, “Methods of administering mesenchymal stem cells activated by cytokines for enhancing immunosuppression” (Rutgers, The State University of New Jersey, priority 2012, dated 2024).
# Tested on: MSCs
# Assay: Gene expression in cytokine-treated MSCs (quantitative RT-PCR, Western Blot)
# Assay type: cell-based, mouse
# Experimental: FIG. 6. IL-17A greatly enhances inflammatory cytokine-induced iNOS expression in mouse BM-MSCs at both mRNA and protein levels. BM-MSCs were treated with the indicated cytokines. The iNOS gene expression was measured by real-time PCR.
# FIGS. 10A, 10B, 10C, 10D and 10E. (FIGS. 10A and 10C). MSCs were cultured with different combinations of inflammatory cytokines IFNγ, TNFα, IL-17A (10 ng/ml) for 12 hr, and then cells were harvested for RNA extraction. The mRNA expression levels of inflammatory molecules iNOS, IL-6, CXCL1 (FIG. 10A) and chemokines CCL2, CCL5, CXCL9, CXCL10 (FIG. 10C) were detected by quantitative RT-PCR. (FIG. 10B). MSCs were cultured with different combinations of inflammatory cytokines IFNγ, TNFα, IL-17A (10 ng/ml) for 24 hr, and the protein level of iNOS was detected by Western Blot. (FIG. 10D). MSCs were supplemented with Sup-CD3 or Sup-CD3 pretreated with antibodies against IL-17A, and cells were collected for RNA extraction after 12 hr. The expression of iNOS, IL-6, CXCL1, CCL2, CCL5, CXCL9 and CXCL10 were measured by quantitative RT-PCR. Sup-CD3: supernatant from splenocytes activated by anti-CD3 and anti-CD28. (FIG. 10E). MSCs were treated with Sup-CD3 or Sup-CD3 pretreated with antibodies against IL-17A, and the protein level of iNOS was assessed by Western Blot after 24 hr. mRNA expression values are means±SEM of three wells from a representative of three independent experiments. Western Blot data is from a representative of three independent experiments.
# FIGS. 11A, 11B, 11C and 11D. (FIG. 11A) MSCs with Act1 knockdown or control were treated with IL-17A for different time and the phosphorylation levels of IκBα, ERK, p65, JNK were assessed by Western Blot. (FIG. 11B) MSCs with Act1 knockdown or control were treated with IFNγ and TNFα with or without IL-17A (all cytokines supplemented at 5 ng/ml) the protein levels of iNOS and Act1 were assessed by Western Blot. (FIG. 11C) MSCs (Act1 knockdown or control) were treated with different cytokines 12 hr, and iNOS expression was measured by quantitative RT-PCR. mRNA expression values are means±SEM. (FIG. 11D) MSCs (Act1 knockdown or control) were first treated with IFNγ and TNFα with or without IL-17A (all cytokines supplemented at 5 ng/ml) for 12 hr, and then cocultured with T cell hybridoma A1.1 cells at a ratio of 1:10 for 12 hr. T cell proliferation was measured by 3H-Tdr incorporation, taking the proliferation level of A1.1 alone as 100%.
# FIGS. 12A and 12B. (FIG. 12A). WT MSCs or auf1^−/− MSCs were treated with IFNγ and TNFα, or together with IL-17A (all cytokines supplemented at 10 ng/ml) for 12 hr, and iNOS, IL-6 and CXCL1 expression was measured by quantitative RT-PCR. mRNA expression values are means±SEM of three wells from a representative of three independent experiments. (FIG. 12B). WT MSCs were treated with IFNγ and TNFα (10 ng/ml), or together with different concentrations of IL-17A; auf1^−/−-MSCs were treated with IFNγ and TNFα (10 ng/ml), or together with 10 ng/ml of IL-17A. After 24 hr, cells were harvested for detection of iNOS by Western Blot. Western blot is a representative of three independent experiments.
# RNA isolation and gene expression assay-Total RNA was isolated with the RNAprep Pure Cell/Bacteria Kit. First-strand cDNA synthesis was performed with a cDNA synthesis kit. The levels of mRNAs were measured by quantitative RT-PCR (7900 HT; Applied Biosystems, Foster City, CA) with SYBR Green Master Mix and normalized to the level of β-actin mRNA. Sequences of forward and reverse primer pairs are as follows:
# Western blotting analysis-Cells were washed twice with ice-cold PBS, harvested and lysed in the RIPA buffer (Millipore, Temecular, CA) containing a cocktail of protease inhibitors (Roche, Natley, NJ) and PMSF (Sigma) for 30 min on ice. Lysates were clarified by centrifugation at 16,000 g for 15 minutes. Protein concentration of the supernatant was determined by the Bradford assay (Bio-Rad, Hercules, CA). […]
# [1] = together with IFNγ and TNFα, 10 ng/ml, 12 hr
molecule,measurement,setting,value
IL-17A: recombinant mouse interleukin 17A (protein) AAIIPQSSACPNTEAKDFLQNVKVNLKVFNSLGAKVSSRRPSDYLNRSTSPWTLHRNEDPDRYPSVIWEAQCRHQRCVNAEGKLDHHMNSVLIQQEILVLKREPESCPFTFRVEKMLVGVGCTCVASIVRQAA,IFNγ+TNFα induced iNOS expression in Act1 knockdown MSCs,5 ng/ml,could not upregulate
same,"expression of CCL5, CCL2, CXCL9, CXCL10","addition to IFNγ and TNFα, 10 ng/ml, 12 hr",unaffected
same,expression of iNOS at mRNA and protein levels in BM-MSCs,in the presence of IFNγ and TNFα,greatly enhanced
same,"iNOS, IL-6, and CXCL1 mRNAs in wild-type MSCs",[1],significant increases
same,"increase of iNOS, IL-6, and CXCL1 mRNA abundance in auf1−/− MSCs",[1],less than twofold
same,IL-17A induction of iNOS expression in MSCs with AUF1 knocked down with siRNA,with IFNγ+TNFα,largely abrogated
same,iNOS expression in wild type MSCs,with IFNγ+TNFα,strikingly induced
